The text below walks through data of patent US20200216522A1 (DENALI THERAPEUTICS, published 2020).

Usually Kd stands for the free concentration of one partner at which half of the binding sites on the other are occupied at equilibrium, for simple one-to-one binding. Broadly, the koff is a measure of how fast the partners let go of each other. Broadly, the kon is the second-order rate constant of association.

In one assay the target is T1, Peptide_044 (human).
T1 peptide: PTPPTREPKKVAVVR
Nature of the assay: peptide array. A digest of the protocol: (§1)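 Overlapping 15-mer peptides (5-aa offset) spanning human 2N4R Tau spotted in triplicate on slides; antibodies bound 2 h at room temperature in 3% BSA-TBST (chimeric IgG 5 μg/mL; mouse IgG 30 μg/mL). Detection 1 h with fluorescent anti-human (568 nm) or anti-mouse (647 nm) secondary; fluorescence imaging aligned to array map.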

The next assay deals with T2, Peptide_062 (human).
T2 peptide: VQIVYKPVDLSKVTS
The assay can be described thus: peptide array. The essentials: as §1

Another assay deals with T3, Peptide_063 (human).
T3 peptide: KPVDLSKVTSKCGSL
Nature of the assay: peptide array. A digest of the protocol: as §1

A further assay concerns the target T4, Peptide_013 (human).
T4 peptide: SETSDAKSTPTAEDV
The assay can be described thus: peptide array. A digest of the protocol: as §1

The next assay concerns the target T5, Peptide_011 (human).
T5 peptide: PTEDGSEEPGSETSD
Nature of the assay: peptide array. A digest of the protocol:
as §1

The target in a further assay is T6, Peptide_067 (human).
T6 peptide: KPGGGQVEVKSEKLD
The assay can be described thus: peptide array. A digest of the protocol: as §1

Another assay addresses T7, Peptide_008 (human).
T7 peptide: EGDTDAGLKESPLQT
The assay can be described thus: peptide array. A digest of the protocol: as §1

The target in another assay is T8, Peptide_054 (human).
T8 peptide: LKHQPGGGKVQIINK
Nature of the assay: peptide array. A digest of the protocol:
as §1

In another assay the target is T9, Peptide_005 (human).
T9 peptide: GDRKDQGGYTMHQDQ
The assay can be described thus: peptide array. A digest of the protocol:
as §1

In another assay the target is T10, cynomolgus monkey Tau (cynomolgus monkey, UniProt P57786 2-459 (rhesus entry)).
T10 construct: also called cyno Tau; cyno-Tau
T10 sequence (P57786 other isoform, or with tags, fused parts or gaps limits assumed): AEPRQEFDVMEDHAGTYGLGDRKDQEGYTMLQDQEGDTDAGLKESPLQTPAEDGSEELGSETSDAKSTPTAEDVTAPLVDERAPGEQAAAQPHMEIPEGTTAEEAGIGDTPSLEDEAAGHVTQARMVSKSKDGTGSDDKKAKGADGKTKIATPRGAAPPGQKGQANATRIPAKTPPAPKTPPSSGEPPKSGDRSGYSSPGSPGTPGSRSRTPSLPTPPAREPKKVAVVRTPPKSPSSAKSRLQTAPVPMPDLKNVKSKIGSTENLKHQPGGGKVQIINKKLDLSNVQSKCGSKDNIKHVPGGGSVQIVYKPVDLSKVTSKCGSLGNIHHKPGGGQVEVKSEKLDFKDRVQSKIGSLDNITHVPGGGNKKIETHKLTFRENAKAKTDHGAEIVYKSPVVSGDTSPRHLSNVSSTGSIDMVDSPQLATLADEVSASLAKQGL
The assay can be described thus: ELISA, hybridoma antibody. The protocol: Primary screening was performed by coating 96-well ELISA Nunc plates overnight at 4° C. with 1 μg/mL r-Tau in PBS. The plates were washed three times with PBST using a Biotek plate washer. 50 µL/well of hybridoma supernatants were added to the plates with incubation at room temperature for 1 hour. Plates were washed three times with PBST. A secondary detection antibody goat X m HRP (Southern Biotech) at 1:2000 dilution, 50 μL/well was added to the plate and incubated for 1 hour at room temperature. At the end of an hour, plates were washed three time with PBST. Plates were developed with 50 μL/well of TMB substrate (Thermo Fisher) and quenched with 50 μL/well of 1N sulfuric acid. The signal was quantified on a BioTek® plate reader at A450. Wells with an OD three times the background for r-Tau were considered positive and carried forward for secondary screening.
Positives from primary screening were carried forward into the secondary screening where they were screened by ELISA using the above protocol on r-Tau, p-Tau, and cyno-Tau for binding and cross-reactivity. Further characterization on the five different Tau isoforms was performed by the same method.
Background: ELISA stands for enzyme-linked immunosorbent assay.

Assay [1] has as its target T11, full-length human Tau (Tau441; 2N4R), recombinant (human, UniProt P10636 1-758).
T11 construct: made in E. coli, His6-Smt3 tag removed; biotinylated through amines for Octet and phage work; also called r-Tau; recombinant Tau
The assay can be described thus: SPR Biacore, antibody captured, r-Tau injected. The method, then:
The affinity of each hybridoma antibody for r-Tau was determined by surface plasmon resonance using a Biacore™ T200 instrument. Biacore™ Series S CM5 sensor chips were immobilized with polyclonal rabbit anti-mouse IgG (Fc) antibody (mouse antibody capture kit from GE Healthcare). 1 μg/mL of antibody was captured for 1 minute on each flow cell and serial 3-fold dilutions of r-Tau were injected at a flow rate of […]. Each sample was analyzed with a 3-minute association and a 10-minute dissociation. After each injection, the chip was regenerated using 10 mM Glycine-HCl (pH 1.7). Binding response was corrected by subtracting the RU from a flow cell capturing an irrelevant IgG at similar density. A 1:1 Languir model of simultaneous fitting of kₒₙ and koff was used for kinetics analysis.
For orientation: Surface plasmon resonance follows binding to a sensor surface in real time, without labels.

In assay [2] the target is T12, Tau 251-270 peptide phosphorylated at both Ser258 and Ser262 (human, N-terminal biotin; C-terminal amide; phosphoserine at 258 and 262 (numbering of SEQ ID NO:1)).
T12 construct: also called pSer258 and pSer262 peptide
T12 peptide: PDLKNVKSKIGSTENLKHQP
The assay can be described thus: ELISA on biotinylated peptide. The method, then: (§2) Peptides corresponding to original binding sites on the microarray were synthesized and included all permutations of phospho-serine epitopes. Peptides were synthesized with a biotinylated N-terminus and C-terminal amide. Peptides were purified and confirmed by mass spectrometry. Peptides were then bound to streptavidin-coated plates in half serial dilutions from 250 ng/well of each peptide. Antibody binding was tested at 1 μg/mL in 5% BSA TBST, followed by washing and detection with goat anti-human HRP (as described above in the “Chimeric IgG ELISA” section).

For assay [3], the target named is T13, Tau 346-360 peptide phosphorylated at Ser356 (human, SMILES …).
T13 construct: also called pSer356
T13 peptide: Biotin-FKDRVQSKIG[pS]LDNI-NH2
Nature of the assay: ELISA on biotinylated peptide. The protocol: as §2

Assay [4] addresses T14, Tau 346-360 peptide phosphorylated at Ser352 (human, SMILES …).
T14 construct: also called pSer352
T14 peptide: Biotin-FKDRVQ[pS]KIGSLDNI-NH2
Nature of the assay: ELISA on biotinylated peptide. The protocol: as §2

Square brackets hold non-standard residues; d marks the D form. * marks the point of attachment. Biotin = O=C1N[C@H]2[C@H](CS[C@H]2CCCCC(=O)*)N1; pS = N[C@@H](COP(=O)(O)O)C(=O)O

T11 sequence (P10636 other isoform, or with tags, fused parts or gaps limits assumed): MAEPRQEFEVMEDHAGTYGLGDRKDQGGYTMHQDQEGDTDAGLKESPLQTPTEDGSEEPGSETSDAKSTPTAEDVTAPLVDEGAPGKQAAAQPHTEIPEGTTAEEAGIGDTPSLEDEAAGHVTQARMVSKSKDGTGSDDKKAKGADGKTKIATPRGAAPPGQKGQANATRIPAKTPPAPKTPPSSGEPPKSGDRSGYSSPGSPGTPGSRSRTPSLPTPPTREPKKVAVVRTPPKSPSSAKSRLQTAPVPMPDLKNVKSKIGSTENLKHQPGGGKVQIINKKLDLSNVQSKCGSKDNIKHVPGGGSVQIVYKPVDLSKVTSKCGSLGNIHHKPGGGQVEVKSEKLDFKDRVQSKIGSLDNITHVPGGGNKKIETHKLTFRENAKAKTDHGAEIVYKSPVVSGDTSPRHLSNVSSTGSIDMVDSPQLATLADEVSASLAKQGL

B1: chimeric IgG clone 1A5 (antibody, V domains shown)
VH: EVQLQQSGAELVRPGASVKLSCTASGFNIKDSLIHWVKQRPEQGLEWIGWIDPEDGETKYAPKFQDKATKTADTSSNTAYLQLSSLTSEDTAIYYCASGEWDYWGQGTSVTVSS
VL: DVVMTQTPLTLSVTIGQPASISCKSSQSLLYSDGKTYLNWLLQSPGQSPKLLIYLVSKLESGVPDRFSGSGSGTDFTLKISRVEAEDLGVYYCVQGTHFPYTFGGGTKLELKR
notes: mouse-human chimeric IgG from HEK293
In the case of B1, the binding result with Peptide_044, with Peptide_062, with Peptide_063, with Peptide_013, in the assay with Peptide_011 and in the assay with Peptide_067 was “no binding (tested: 5 ug/mL)” each time. In addition, the binding result with Peptide_008, with Peptide_054 and with Peptide_005 was “no binding (tested: 5 ug/mL)” each time.

B2: chimeric IgG clone 1D10 (antibody, V domains shown)
VH: EVQLQQSGAELVRPGASVKLSCTASGFNIKDSLMHWMKQRPEQGLEWIGWIDPEDGETKYAPKFQDKATLTADTSSNAAYLQLSSLTSEDTAIYYCVRGDWDGGYWGQGTTLTVSS
VL: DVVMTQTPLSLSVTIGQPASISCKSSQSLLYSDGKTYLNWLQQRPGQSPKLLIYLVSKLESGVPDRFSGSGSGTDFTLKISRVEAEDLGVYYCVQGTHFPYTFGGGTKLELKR
notes: as for B1
Turning to B2, the binding result with Peptide_044, with Peptide_062, in the assay with Peptide_063, in the assay with Peptide_013, with Peptide_011 and with Peptide_067 was “no binding (tested: 5 ug/mL)” throughout. In addition, the binding result with Peptide_008, with Peptide_054 and in the assay with Peptide_005 was “no binding (tested: 5 ug/mL)” each time.

B3: murine anti-Tau hybridoma antibody 17G2.A1 (antibody, V domains shown)
VH: QVQLQQPGAELVGPGSSVKLSCKASGYTFINYWIDWMKQSPGQGLEWIGNIYPSDSESHYNQKFTDKATLTVDISSSTAYLQLSSLTSEDSAVYYCALYSKGYWGQGTSVTVSS
VL: DVLMTQTPLSLPVTLGDQASISCRSSQNIVHTNGNTYLEWYLQKPGQSPKLLIYKLSSRFSGVPDRFSGSGSGTDFTLKISRVEAEDLGVYYCFQGSHLPFTFGGGTKLEIKR
notes: mouse IgG from hybridoma; also called anti-Tau 17G2.A1
As for B3, the binding result with cynomolgus monkey Tau is listed as “binds”; in the assay with Peptide_044, “no binding (tested: 30 ug/mL)”; with Peptide_062, “no binding (tested: 30 ug/mL)”; with Peptide_063, “no binding (tested: 30 ug/mL)”; with Peptide_013 it was “no binding (tested: 30 ug/mL)”; in the assay with Peptide_011 it was “no binding (tested: 30 ug/mL)”. Further, the binding result with Peptide_067, with Peptide_008, with Peptide_054 and in the assay with Peptide_005 was “no binding (tested: 30 ug/mL)” each time. Moreover, the Kd in assay [1] is 2.48 nM. In [1], the koff was determined as 0.000383 s⁻¹. Moreover, the association rate constant (kon) in [1] was 155000 M⁻¹ s⁻¹.

B4: chimeric IgG clone 1A1 (antibody, V domains shown)
VH: EVQLQQSGAELVRPGASVRLSCTASGFNIKDSLMHWLKQRPEQGLEWIGWIDPEDGETKYAPKFQDKATITADTSSNTAYLQLSSLTSEDTAIYYCTRRDWEGPWGQGTLVTVSA
VL: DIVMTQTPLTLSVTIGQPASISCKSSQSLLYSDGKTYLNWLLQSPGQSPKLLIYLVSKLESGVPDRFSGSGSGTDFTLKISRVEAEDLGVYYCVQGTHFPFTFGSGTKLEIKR
notes: mouse-human chimeric IgG from HEK293; also called anti-Tau 1A1; anti-Tau^1A1
Take B4: the binding result with Peptide_044, with Peptide_062, with Peptide_063, in the assay with Peptide_013, in the assay with Peptide_011 and with Peptide_067 was “no binding (tested: 5 ug/mL)” throughout. In addition, the binding result with Peptide_008 is listed as “no binding (tested: 5 ug/mL)”; with Peptide_054 it was “no binding (tested: 5 ug/mL)”; with Peptide_005, “no binding (tested: 5 ug/mL)”; in [2], “binds”; in assay [3], “binds”; in assay [4] it was “binds”.

B5: chimeric IgG clone 1G7 (antibody, V domains shown)
VH: EVQLQQSGAEVVRPGASVKLSCTTSGFNIKDSLMHWLKQRPEQGLEWIGWIDPEDGETKYAPKFQDKATITADTSSNTAYLQLSSLTSGDTAIYYCARRDWEGPWGQGTLVTVSA
VL: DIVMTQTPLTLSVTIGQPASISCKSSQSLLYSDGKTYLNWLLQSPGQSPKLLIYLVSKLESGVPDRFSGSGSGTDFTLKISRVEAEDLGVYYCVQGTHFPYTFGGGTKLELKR
notes: as for B1
As to B5, the binding result in the assay with Peptide_044, with Peptide_062, in the assay with Peptide_063, with Peptide_013, with Peptide_011 and in the assay with Peptide_067 was “no binding (tested: 5 ug/mL)” throughout. Besides, the binding result is on record as “no binding (tested: 5 ug/mL)” with Peptide_008, “no binding (tested: 5 ug/mL)” with Peptide_054, “no binding (tested: 5 ug/mL)” with Peptide_005 and “binds” in assay [4].
